# Results taken from article PMC10470053, “Diverse p120RasGAP interactions with doubly phosphorylated partners EphB4, p190RhoGAP, and Dok1” (The Journal of Biological Chemistry, 2023).
# “And” between values parts separate entries of the source, which are not always exact repeats. Equal values may be shown once. Square brackets hold non-standard residues; d marks the D form. pY = N[C@@H](Cc1ccc(OP(=O)(O)O)cc1)C(=O)O
# T1: RasGAP^232 (p120RasGAP N-SH2, SH3 and C-SH2 domains, residues 174-444) (human, UniProt P20936 174-444, C236 | C261 | C372 | C402)
# T1 construct: p120RasGAP (RASA1), human, UniProt P20936, residues 174-444 (N-SH2, SH3, C-SH2), with four cysteine to serine mutations; also called WT RasGAP^232; apo RasGAP^232; source: E. coli Rosetta (DE3), purified (Ni-NTA, TEV cleavage, anion exchange, SEC)
# T1 sequence (looked up): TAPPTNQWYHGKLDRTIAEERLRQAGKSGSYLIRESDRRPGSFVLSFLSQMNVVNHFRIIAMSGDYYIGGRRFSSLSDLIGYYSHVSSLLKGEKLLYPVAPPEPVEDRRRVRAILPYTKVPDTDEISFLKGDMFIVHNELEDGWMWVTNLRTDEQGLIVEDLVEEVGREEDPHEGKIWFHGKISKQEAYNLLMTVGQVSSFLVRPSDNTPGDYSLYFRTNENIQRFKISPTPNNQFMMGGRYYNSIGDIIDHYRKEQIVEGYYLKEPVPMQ
# T2: RasGAP^2(mut)32 (RasGAP^232 with R207A in the N-SH2 domain) (human, UniProt P20936 174-444, R207 to alanine | C236 | C261 | C372 | C402)
# T2 construct: p120RasGAP (RASA1), human, UniProt P20936, residues 174-444, mutant of RasGAP^232 in the N-SH2 domain; also called N-SH2 mutant; source: E. coli Rosetta (DE3), purified (same protocol as the WT: Ni-NTA, TEV cleavage, anion exchange, SEC)
# T2 sequence (looked up): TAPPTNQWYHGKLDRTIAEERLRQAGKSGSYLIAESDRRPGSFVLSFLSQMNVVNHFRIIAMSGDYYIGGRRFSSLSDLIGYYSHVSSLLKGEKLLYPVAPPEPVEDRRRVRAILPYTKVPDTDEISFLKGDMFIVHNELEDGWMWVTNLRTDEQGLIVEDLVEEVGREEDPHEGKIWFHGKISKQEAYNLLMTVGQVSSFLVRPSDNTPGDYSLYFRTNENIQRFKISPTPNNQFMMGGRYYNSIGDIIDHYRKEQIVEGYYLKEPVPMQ
# T3: RasGAP^232(mut) (RasGAP^232 with R398E/K400E in the C-SH2 domain) (human, UniProt P20936 174-444, R398E | K400E | C236 | C261 | C372 | C402)
# T3 construct: p120RasGAP (RASA1), human, UniProt P20936, residues 174-444, mutant of RasGAP^232 in the C-SH2 domain; also called C-SH2 mutant; source: E. coli Rosetta (DE3), purified (same protocol as the WT: Ni-NTA, TEV cleavage, anion exchange, SEC)
# T3 sequence (looked up): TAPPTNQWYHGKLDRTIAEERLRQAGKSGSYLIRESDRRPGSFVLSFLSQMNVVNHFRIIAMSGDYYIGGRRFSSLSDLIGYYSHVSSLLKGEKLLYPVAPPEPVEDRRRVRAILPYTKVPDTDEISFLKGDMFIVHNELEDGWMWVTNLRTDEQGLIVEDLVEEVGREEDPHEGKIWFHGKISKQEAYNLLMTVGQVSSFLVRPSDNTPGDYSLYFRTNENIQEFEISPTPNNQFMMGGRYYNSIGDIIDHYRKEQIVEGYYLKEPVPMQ
# T4: RasGAP^232 (p120RasGAP SH2-SH3-SH2 region, residues 174-444) (human, C236S (stands in the printed letters) | C261S (stands in the printed letters) | …)
# T4 construct: p120RasGAP, human, UniProt P20936, residues 174-444 (N-SH2, SH3, C-SH2) with four cysteine to serine mutations; the methods say that the hexahistidine tag was cut off with TEV, so G-S of the printed stretch probably stay before T174; also called WT RasGAP^232; source: E. coli Rosetta (DE3), purified (Ni-NTA, TEV cleavage, anion exchange, SEC); not shown: His6, N-terminal, cleaved
# T4 chain: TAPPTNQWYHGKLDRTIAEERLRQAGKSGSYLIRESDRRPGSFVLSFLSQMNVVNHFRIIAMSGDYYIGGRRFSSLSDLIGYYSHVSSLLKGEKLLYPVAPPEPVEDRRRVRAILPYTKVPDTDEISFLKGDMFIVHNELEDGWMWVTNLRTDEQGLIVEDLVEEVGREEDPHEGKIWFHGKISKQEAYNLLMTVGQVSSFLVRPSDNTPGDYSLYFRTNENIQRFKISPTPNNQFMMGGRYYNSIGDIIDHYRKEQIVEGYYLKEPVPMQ
# T5: RasGAP^2(mut)32 (RasGAP^232 with R207A in the N-SH2 domain) (human, UniProt P20936 174-444, C236S | C261S | C372S | C402S | R207 to alanine)
# T5 construct: p120RasGAP, human, UniProt P20936, residues 174-444; Made by site-directed mutagenesis of RasGAP^232, which holds the four cysteine to serine mutations; also called N-SH2 mutant; source: E. coli Rosetta (DE3), purified (same protocol as the WT counterpart); not shown: His6, N-terminal, cleaved
# T5 sequence (looked up): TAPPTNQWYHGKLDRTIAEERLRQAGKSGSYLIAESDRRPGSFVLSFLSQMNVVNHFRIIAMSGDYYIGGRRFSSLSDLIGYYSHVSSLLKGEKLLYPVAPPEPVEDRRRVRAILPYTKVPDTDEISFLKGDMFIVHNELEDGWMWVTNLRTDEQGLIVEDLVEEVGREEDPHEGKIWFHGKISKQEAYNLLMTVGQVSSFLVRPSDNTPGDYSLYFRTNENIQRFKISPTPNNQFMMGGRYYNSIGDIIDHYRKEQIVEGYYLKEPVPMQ
# T6: RasGAP^232(mut) (RasGAP^232 with R398E/K400E in the C-SH2 domain) (human, UniProt P20936 174-444, C236S | C261S | C372S | C402S | R398E | K400E)
# T6 construct: p120RasGAP, human, UniProt P20936, residues 174-444; Made by site-directed mutagenesis of RasGAP^232, which holds the four cysteine to serine mutations; also called C-SH2 mutant; source: E. coli Rosetta (DE3), purified (same protocol as the WT counterpart); not shown: His6, N-terminal, cleaved
# T6 sequence (looked up): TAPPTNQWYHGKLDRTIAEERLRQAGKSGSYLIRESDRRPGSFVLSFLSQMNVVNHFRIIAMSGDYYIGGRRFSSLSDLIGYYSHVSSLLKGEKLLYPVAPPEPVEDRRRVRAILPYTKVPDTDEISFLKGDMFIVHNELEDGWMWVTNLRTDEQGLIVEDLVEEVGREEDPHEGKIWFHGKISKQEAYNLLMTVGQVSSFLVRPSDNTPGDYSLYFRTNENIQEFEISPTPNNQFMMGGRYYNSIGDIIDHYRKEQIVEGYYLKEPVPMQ
# Tests used:
# Conditions in all cases: both partners purified
# [1] = molecular target: T1, RasGAP^232 (p120RasGAP N-SH2, SH3 and …); assay: ITC; protein in the 190 ul sample cell, titrated 20 times with 2.5 ul peptide from the syringe; 20 mM Tris pH 8, 250 mM NaCl; Nano ITC (TA Instruments); independent binding model
# [2] = molecular target: T2, RasGAP^2(mut)32 (RasGAP^232 with R207A …); assay: as above
# [3] = molecular target: T3, RasGAP^232(mut) (RasGAP^232 with …); assay: as above
# [4] = molecular target: T4, RasGAP^232 (p120RasGAP SH2-SH3-SH2 …); assay: ITC; RasGAP^232 protein (WT or mutant) in the 190 µl sample cell, peptide in the syringe, 20 injections of 2.5 µl; 20 mM Tris pH 8, 250 mM NaCl; Nano ITC (TA Instruments); blank (constant) and independent models; values of single trials, averages and stdev
# [5] = molecular target: T5, RasGAP^2(mut)32 (RasGAP^232 with R207A …); assay: as above
# [6] = molecular target: T6, RasGAP^232(mut) (RasGAP^232 with …); assay: as above
binder,measurement,setting,value
"Ac-GTKV[pY]IDPFT[pY]EDPNEA-NH2 (SMILES CC[C@H](C)[C@H](NC(=O)[C@H](Cc1ccc(OP(=O)(O)O)cc1)NC(=O)[C@@H](NC(=O)[C@H](CCCCN)NC(=O)[C@@H](NC(=O)CNC(C)=O)[C@@H](C)O)C(C)C)C(=O)N[C@@H](CC(=O)O)C(=O)N1CCC[C@H]1C(=O)N[C@@H](Cc1ccccc1)C(=O)N[C@H](C(=O)N[C@@H](Cc1ccc(OP(=O)(O)O)cc1)C(=O)N[C@@H](CCC(=O)O)C(=O)N[C@@H](CC(=O)O)C(=O)N1CCC[C@H]1C(=O)N[C@@H](CC(N)=O)C(=O)N[C@@H](CCC(=O)O)C(=O)N[C@@H](C)C(N)=O)[C@@H](C)O, EphB4 juxtamembrane region, UniProt P54760, residues 586-602; also called pYpY EphB4; pYpYEphB4; source: synthetic peptide, bought: GenScript) [doubly phosphorylated EphB4 peptide (residues 586-602, pY590 and pY596)]",Kd,[1],2 ± 0.7 µM
same,dH,[1],-5.74 ± 0.717 kcal/mol
same,stoichiometry N,[1],1 ± 0.1
same,Kd,[2],40 ± 20 µM
same,dH,[2],-7.89 ± 1.43 kcal/mol
same,stoichiometry N,[2],0.9 ± 0.2
same,Kd,[3],1 ± 0.3 µM
same,dH,[3],-5.98 ± 0.239 kcal/mol
same,stoichiometry N,[3],0.75 ± 0.02
"Ac-GTKV[pY]IDPFT[pY]EDPNEA-NH2 (SMILES CC[C@H](C)[C@H](NC(=O)[C@H](Cc1ccc(OP(=O)(O)O)cc1)NC(=O)[C@@H](NC(=O)[C@H](CCCCN)NC(=O)[C@@H](NC(=O)CNC(C)=O)[C@@H](C)O)C(C)C)C(=O)N[C@@H](CC(=O)O)C(=O)N1CCC[C@H]1C(=O)N[C@@H](Cc1ccccc1)C(=O)N[C@H](C(=O)N[C@@H](Cc1ccc(OP(=O)(O)O)cc1)C(=O)N[C@@H](CCC(=O)O)C(=O)N[C@@H](CC(=O)O)C(=O)N1CCC[C@H]1C(=O)N[C@@H](CC(N)=O)C(=O)N[C@@H](CCC(=O)O)C(=O)N[C@@H](C)C(N)=O)[C@@H](C)O, EphB4, UniProt P54760, juxtamembrane residues 586-602; also called pYpY EphB4; pYpYEphB4; source: synthetic peptide, bought: GenScript) [doubly phosphorylated EphB4 peptide (residues 586-602)]",Kd,[4],1.3 µM and 1.5 µM and 2.4 µM and 2.7 µM
same,stoichiometry N,[4],0.9 and 1 and 1.1
same,Ka,[5],40000 M⁻¹ and 30000 M⁻¹ and 20000 M⁻¹
same,Kd,[5],25 µM and 32 µM and 60 µM and 38 µM
same,stoichiometry N,[5],0.7 and 1 and 0.9 and 1.2
same,Ka,[6],900000 M⁻¹ and 700000 M⁻¹ and 1e+06 M⁻¹
same,Kd,[6],1.1 µM and 1.5 µM and 1 µM and 0.8 µM
same,stoichiometry N,[6],0.8 and 0.7
"Ac-SPPAL[pY]AEPLDSLRIAPCPSQDSL[pY]SDPLDST-NH2 (SMILES CC[C@H](C)[C@H](NC(=O)[C@H](CCCNC(=N)N)NC(=O)[C@H](CC(C)C)NC(=O)[C@H](CO)NC(=O)[C@H](CC(=O)O)NC(=O)[C@H](CC(C)C)NC(=O)[C@@H]1CCCN1C(=O)[C@H](CCC(=O)O)NC(=O)[C@H](C)NC(=O)[C@H](Cc1ccc(OP(=O)(O)O)cc1)NC(=O)[C@H](CC(C)C)NC(=O)[C@H](C)NC(=O)[C@@H]1CCCN1C(=O)[C@@H]1CCCN1C(=O)[C@H](CO)NC(C)=O)C(=O)N[C@@H](C)C(=O)N1CCC[C@H]1C(=O)N[C@@H](CS)C(=O)N1CCC[C@H]1C(=O)N[C@@H](CO)C(=O)N[C@@H](CCC(N)=O)C(=O)N[C@@H](CC(=O)O)C(=O)N[C@@H](CO)C(=O)N[C@@H](CC(C)C)C(=O)N[C@@H](Cc1ccc(OP(=O)(O)O)cc1)C(=O)N[C@@H](CO)C(=O)N[C@@H](CC(=O)O)C(=O)N1CCC[C@H]1C(=O)N[C@@H](CC(C)C)C(=O)N[C@@H](CC(=O)O)C(=O)N[C@@H](CO)C(=O)N[C@H](C(N)=O)[C@@H](C)O, Dok1, UniProt Q99704, residues 291-322; also called pYpY Dok1; pYpYDok1; source: synthetic peptide, bought: GenScript) [doubly phosphorylated Dok1 peptide (residues 291-322)]",Ka,[4],6.3e+07 M⁻¹ and 2.1e+07 M⁻¹ and 4.3e+07 M⁻¹ and 4e+07 M⁻¹
same,Kd,[4],0.016 µM and 0.047 µM and 0.023 µM
same,stoichiometry N,[4],0.9 and 0.8 and 0.7
